Target: T1, FGFR4蛋白 (成纤维细胞生长因子受体4, recombinant protein antigen bought from 义翘神州 / Sino Biological) (human, UniProt P22455 22-369, limits assumed)
T1 construct: In the Western blot the protein was boiled and denatured; also called FGFR4蛋白抗原; fibroblast growth factor receptor 4
T1 sequence (looked up): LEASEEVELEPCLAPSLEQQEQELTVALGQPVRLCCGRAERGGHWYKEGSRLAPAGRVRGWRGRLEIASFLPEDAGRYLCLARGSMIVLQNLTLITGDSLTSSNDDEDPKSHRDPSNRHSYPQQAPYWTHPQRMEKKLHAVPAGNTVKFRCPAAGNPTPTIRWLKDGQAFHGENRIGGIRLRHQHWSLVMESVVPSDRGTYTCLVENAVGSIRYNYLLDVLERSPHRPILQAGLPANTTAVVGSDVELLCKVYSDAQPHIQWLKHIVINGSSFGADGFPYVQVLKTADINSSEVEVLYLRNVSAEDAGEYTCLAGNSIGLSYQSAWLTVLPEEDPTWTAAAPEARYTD
Experiment: BLI (OCTET K2), FGFR4 protein 10 μg/ml loaded on AHC (Anti-hIgG Fc Capture) sensors, 6G12F5 in solution at 8.84-566.7 nM

B1: 6G12F5抗体 (抗FGFR4的单克隆抗体6G12F5) (antibody, V domains shown)
VH: EVMLVESGGGLVKPGGSLKLSCAVSGFTFRNYAMSWVRQSPEKRLEWVAEISNGGRYIYYPDTVTGRFTISRDNAKNTLYLEMSSLRSEDTAMYYCVRGGEKTSGYVWFAYWGEGTLVTVG
VL: DIQMTQTPASLSASVEETVTITCRASENIYSYLAWYQQKQGRSPQLLLYNAKTLAEGVPSRFSGSGSGTQFSLKINSLQPEDFGIYYCQHFSGTPYTFGEGTKLEIT
notes: Mouse hybridoma monoclonal antibody (BALB/c), purified from ascites on Protein G and detected with anti-mouse IgG; also called FGFR4单克隆抗体; FGFR4抗体
  Kd: < 1 pM

— patent publication CN111471109A (SHENZHEN INST OF ADV TECH CAS, dated 2020)
